Results reported in PMC7595112, “Ketohexokinase-A acts as a nuclear protein kinase that mediates fructose-induced metastasis in breast cancer” (Nature Communications, 2020).

B1: His(6)-KHK-A purified from HEK293T cells (enzyme, human)
chain: MEEKQILCVGLVVLDVISLVDKYPKEDSEIRCLSQRWQRGGNASNSCTVLSLLGAPCAFMGSMAPGHVADFVLDDLRRYSVDLRYTVFQTTGSVPIATVIINEASGSRTILYYDRSLPDVSATDFEKVDLTQFKWIHIEGRNASEQVKMLQRIDAHNTRQPPEQKIRVSVEVEKPREELFQLFGYGDVVFVSKDVAKHLGFQSAEEALRGLYGRVRKGAVLVCAWAEEGADALGPDGKLLHSDAFPPPRVVDTLGAGDTFNASVIFSLSQGRSVQEALRFGCQVAGKKCGLQGFDGIV
notes: ketohexokinase isoform A (KHK-A), human cDNA NM_000221 cloned by RT-PCR into pcDNA-His(6); also called His-KHK-A; purified KHK-A; source: HEK293T, purified (nickel-NTA beads, eluted with 250 mM imidazole)

What was measured:
[1] = target: SLUG (SNAIL2) (UniProt O43623); experiment: co-immunoprecipitation, immunoblot; conditions: reference: wild-type YWHAH; sites S25
[2] = target: T1, FLAG-LRRC59 purified from HEK293T cells (human, UniProt Q96AG4 1-307); experiment: pull-down; purified His-KHK-A and FLAG-LRRC59 incubated 1 h at 4 °C with 1 mM fructose in 25 mM HEPES pH 7.5, 150 mM KCl, 12.5 mM MgCl2, 0.5 mM DTT, 0.1% NP-40, 10% glycerol; His-KHK-A pulled down with nickel-NTA, anti-Flag blot; conditions: both partners purified
T1 construct: leucine-rich repeat-containing protein 59, human cDNA NM_018509 cloned by RT-PCR into pcDNA-FLAG
T1 sequence (looked up): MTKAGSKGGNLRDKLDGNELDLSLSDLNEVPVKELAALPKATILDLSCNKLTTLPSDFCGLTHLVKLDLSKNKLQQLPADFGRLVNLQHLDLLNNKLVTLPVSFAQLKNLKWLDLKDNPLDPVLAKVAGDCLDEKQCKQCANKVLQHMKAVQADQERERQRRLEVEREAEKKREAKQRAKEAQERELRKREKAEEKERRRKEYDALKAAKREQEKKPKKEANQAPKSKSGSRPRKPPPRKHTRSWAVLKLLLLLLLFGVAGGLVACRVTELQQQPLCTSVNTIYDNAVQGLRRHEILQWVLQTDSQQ

Row | binding against the reference [1] | binding result [2] | Molecule
1 | lost | – | YWHAH (14-3-3η) (from UniProt Q04917) YWHAH S25A
2 | – | binds | B1
